Data from patent US20100261660A1 (published 2010).
Values belong to the binder of their own block, whether it stands above or below them.

Assays:
[1] = molecular target: T1, Soluble CD28-Ig (extracellular domain of human CD28 fused to the Fc portion of human IgG1) (human, UniProt P10747 19-152, biotin-conjugated (NHS-biotin) in the FACS binding assays); experiment: competitive FACS on transfected cells, biotin-sCD28-Ig with FITC-sCTLA-4-Ig; grade 0-2 of CD28/CTLA-4 ratio vs WT hB7-1
T1 construct: extracellular domain; bought from R&D Systems; also called sCD28-Ig; CD28-Ig Fc; not shown: Fc portion of human IgG1

[2] = molecular target: CD28 receptor on human T cells (human, UniProt P10747 19-220); experiment: cell-based or functional assay
[3] = molecular target: T1, Soluble CD28-Ig (extracellular domain …); experiment: binding assay, data not shown
[4] = molecular target: T2, Soluble CTLA-4-Ig (extracellular domain of human CTLA-4 fused to the Fc portion of human IgG1) (human, UniProt P16410 36-161, FITC-conjugated in the FACS binding assays); experiment: binding assay, data not shown
T2 construct: extracellular domain; bought from R&D Systems; also called sCTLA-4-Ig; CTLA-4-Ig Fc; not shown: Fc portion of human IgG1
T2 sequence (P16410 36-161): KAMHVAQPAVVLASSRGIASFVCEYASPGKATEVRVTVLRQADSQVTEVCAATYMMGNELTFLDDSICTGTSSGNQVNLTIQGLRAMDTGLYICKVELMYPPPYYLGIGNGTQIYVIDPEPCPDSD

[5] = molecular target: T1, Soluble CD28-Ig (extracellular domain …); experiment: two-color FACS of transfected 293 cells
Protocol: (§1) The labeled cells were subsequently handled at 4° C., washed twice with DMEM/10% FCS and incubated with 0.1 μg/ml Streptavidin-phycoerythrin (PE) (Pharmingen, San Diego, Calif.) in 100 μl for 15 min. Biotin binds the fluorescence marker Streptavidin-PE. (R-PE has an excitation maximum of 565 nanometers (nm) and an emission maximum of 578 nm. B-PE has excitation and emission maxima of 545 nm and 578 nm, respectively. FITC has excitation and emission maxima of 494 and 519, respectively.) The cells were again washed twice and resuspended in 200 μl medium with 5 μg/ml propidium iodide (PI). The cells were then analyzed using a FACSCalibur flow cytometer and CellQuest software (BDIS, San Jose, Calif.). Cell sorting was performed by flow-cytometry based cell sorting screening methods using FACS (Fluorescence-Activated Cell Sorting) Vantage SE cell sorter (BDIS) (Becton Dickinson; San Jose, Calif.). The staining concentration was determined for each labeled protein to provide a maximal Mean Fluorescence Intensity (MFI) and minimal background signal (e.g., optimum staining concentration was the concentration per 10⁶ cells).

[6] = molecular target: T2, Soluble CTLA-4-Ig (extracellular domain …); experiment: two-color FACS of transfected 293 cells
Protocol: as §1

[7] = molecular target: T1, Soluble CD28-Ig (extracellular domain …); experiment: flow cytometry of transiently transfected 293 cells
[8] = molecular target: T2, Soluble CTLA-4-Ig (extracellular domain …); experiment: flow cytometry of transfected cells, at least two experiments

binding result [7]: binds
B9: CD28BP-FLAG (CD28BP-15 with a FLAG-tag) (ligand)
chain: DYKDDDDKITPKSVTKRVKETVMLSCDYNTSTEELTSLRIYWQKDSKMVLAILPGKVQVWPEYKNRTITDMNDNPRIVILALRPSDSGTYTCVIQKPVLKGAYKLEHLASVRLMIRADFPVPTINDLGNPSPNIRRLICSTSGGFPRPHLYWLENGEELNATNTTVSQDPGTELYMISSELDFNVTNNHSIVCLIKYGELSVSQIFPWSKPKQEPPIDQLPFWVIIPVSGALVLTAVVLYCLACRHVARWKRTRRNEETVGTERLSPIYLGSAQSSG
notes: also called FLAG-construct of CD28BP-15

binding result [8]: binds | Binding Score [1]: 1
B10: Round 1 CD28BP-84 (ligand)
chain: GISQVTKSVKEMAALSCDYNISIDELARMRIYWQKDQQMVLSIISGQVEVWPEYKNRTFPDIINNLSLMILALRLSDKGTYTCVVQKNENGSFRREHLTSVTLSIRADSPVPSITDIGHPAPNVKRIRCSASGGFPEPRLAWMEDGEELNAVNTTVDQDLDTELYSVSSELDFNVTNNHSIVCLIKYGELSVSQIFPWSKPKQEPPIDQLPFWVIIPVSGALVLTAVVLYCLACRHVARWKRTRRNEETVGTERLSPIYLGSAQSSG
notes: also called R1clone 84; Clone 84

binding result [8]: binds | Binding Score [1]: 1
B11: Round 1 CD28BP-118 (ligand)
chain: GISQVTKSVKEMAALSCDYNISIDELARMRIYWQKDQQMVLSIISGQVEVWPEYKNRTFPDIINNLSLMILALRLSDKGTYTCVVQKNENGSFRREHLTSVTLSIRADFPVPSITDIGHPAPNVKRIRCSASGDFPEPRLAWMEDGEELNAVNTTVDQDLDTELYSVSSELDFNVTNNHSIVCLIKYGELSVSQIFPWSKPKQEPPIDQLPFWVIIPVSGALVLTAVVLYCLACRHVARWKRTRRNEETVGTERLSPIYLGSAQSSG
notes: also called R1clone 118; Clone 118

Second part, the binder before the results:

B1: Round 2 CD28F11-8 (ligand)
chain: ITPKSVTKRVKETVMLSCDYNTSTEELTSLRIYWQKDSKMVLAILPGKVQVWPEYKNRTITDMNDNPRIVILALRLSDSGTYTCVIQKPVLKGAYKLEHLTSVRLMIRADFPVPTINDLGNPSPNIRRLICSTSGGFPRPHLYWLENGEELNATNTTLSQDPETKLYMISSELDFNMTSNLCLVKYGDLTVSQTFYWQESKPTPSANQHLTWTIIIPVSAFGISVIIAVILTCLTCRNAAIRRQRRENEVEMQSCSQSP
Binding Score [1]: 0

B2: Round 2 CD28H6-6 (ligand)
chain: ITPKSVTKRVKETVMLSCDYSTSTEELTSLRIYWQKDSKMVLAILPGKVQVWPEYKNRTITDMNDNPRIVILALRLSDSGTYTCVIQKPVLKGAYKLEHLASVRLMIRADFPVPTINDLGNPSPNIRRLICSGFPRPHLYWLENGEELNATNTTVSQDPGTELYMISSELDFNVTNNHSIVCLIKYGELSVSQIFPWSKPKQEPPIDQLPFWVIIPVSGALVLTAVVLYCLACRHVARWKRTRRNEETVGTERLSPIYLGSAQSSG
Binding Score [1]: 1

B3: Round 2 CD28A2-5 (ligand)
chain: ITPKSVTKRVKETVMLSCDYNTSTEELTSLRIYWQKDSKMVLAILPGKVQVWPEYKNRTITDMNDNPRIVILALRLSDSGTYTCVIQKPDLKGAYKLEHLASVRLMIRADFPVPSITDIGHPAPNVKRIRCSASGGFPEPRLAWMEDGEELNAVNTTVDQDLDTELYSVSSELDFNMTSNHSFLCLVKYGDLTVSQTFYWQESKPTPSANQHLTWTIIIPVSAFGISVIIAVILTCLTCRNAAIRRQRRENEGKCKVLSVSIGTKLKFNR
Binding Score [1]: 0

B4: Round 2 CD28BP-15 (ligand)
chain: ITPKSVTKRVKETVMLSCDYNTSTEELTSLRIYWQKDSKMVLAILPGKVQVWPEYKNRTITDMNDNPRIVILALRPSDSGTYTCVIQKPVLKGAYKLEHLASVRLMIRADFPVPTINDLGNPSPNIRRLICSTSGGFPRPHLYWLENGEELNATNTTVSQDPGTELYMISSELDFNVTNNHSIVCLIKYGELSVSQIFPWSKPKQEPPIDQLPFWVIIPVSGALVLTAVVLYCLACRHVARWKRTRRNEETVGTERLSPIYLGSAQSSG
notes: also called clone R2 CD28BP-15; clone 15
T cell proliferation (3H-thymidine incorporation), irradiated 293 transfectants with purified human T cells and anti-CD3 mAbs [2]: ~10 fold | Binding Score [1]: 2

B5: Baboon B7-1 (ligand)
chain: VIHVTKEVKEVATLSCGHNVSVEELAQTRIYWQKEKKMVLTMMSGDMNIWPEYKNRTIFDITNNLSIVILALRPSDEGTYECVVLKYEKDAFKREHLAEVMLSVKADFPTPSITDFEIPPSNIRRIICSTSGGFPEPHLFWLENGEELNAINTTVSQDPGTELYTVSSKLDFNMTTNHSFVCLIKYGHLRVNQTFNWNTPKQEHFPDNLLPSWAITLISVNGIFVICCLTYCFAPRCRERRRNETLRRESVRPV
binding result [3]: binds | binding result [4]: binds

B6: Rhesus B7-1 (ligand)
chain: VIHVTKEVKEVATLSCGHNVSVEELAQTRIYWQKEKKMVLTMMSGDMNIWPEYKNRTIFDITNNLSIVILALRPSDEGTYECVVLKYEKDAFKREHLAEVMLSVKADFPTPSITDFEIPPSNIRRIICSTSGGFPEPRLSWLENGEELNAISTTVSQDPETELYTVSSKLDFNMTTNHSFMCLIKYGHLRVNQTFNWNTPKQEHFPDNLLPSWAITLISVNGIFVICCLTHCFAPRCRERRRNETLRRESVRPV
notes: also called rhesus monkey B7-1
binding result [5]: binds | binding result [6]: binds

B7: Orangutan B7-1 (ligand)
chain: VIHVTKEVKEVATLSCGHNVSVEELAQTRIYWQKEKKMVLTMMSGDMNIWPEYKNRTIFDITNNLSIVILALRPSDEGTYECVVLKYEKDAFKREHLAEVTLSVKADFPTPSISDFEIPTSNIRRMICSTSGGFPEPHLSWLENGEELNAISTTVSQDPETELYAVSSKLDFNMTTNHSFMCLIKYGHLRVNQTFNWNTPKQEHFPDNLLPSWAITLISVNGIFVICCLTYCFAPRCRERRSNERLRRESVRPV
binding result [3]: binds | binding result [4]: binds

B8: Round 2 CD28B4-5* (ligand)
chain: SGITPKSVTKRVKETVMLSCDYNTSTEELTSLRIYWQKDSKMVLAILPGKVQVWPEYKNRTITDMNDNPRIVILALRLSDKGTYTCVVQKPDLKGAYKLEHLASVRLMIRADFPVPSITDIGHPAPNVKRIRCSASGGFPEPRLAWMEDGEELNAVNTTVDQDLDTELYSVSSELDFNVTNNHSIVCLIKYGELSVSQIFPWSKPKQEPPIDQLPFWVIIPVSGALVLTAVVLYCLACRHVARWKRTRRNEETVGTERLSPIYLGSAQSSG
Binding Score [1]: 0
